# Measurements published in patent publication US20180057604A1 (Genentech, published 2018).
# Read-outs that look alike come from different tables or passages of the source.
# T1: cyno TfR extracellular domain (analogous construct to human TfR ecd) (cynomolgus monkey, UniProt Q5RDH6 87-760 (Pongo abelii entry))
# T1 construct: also called cynoTfR ecd
# T1 chain: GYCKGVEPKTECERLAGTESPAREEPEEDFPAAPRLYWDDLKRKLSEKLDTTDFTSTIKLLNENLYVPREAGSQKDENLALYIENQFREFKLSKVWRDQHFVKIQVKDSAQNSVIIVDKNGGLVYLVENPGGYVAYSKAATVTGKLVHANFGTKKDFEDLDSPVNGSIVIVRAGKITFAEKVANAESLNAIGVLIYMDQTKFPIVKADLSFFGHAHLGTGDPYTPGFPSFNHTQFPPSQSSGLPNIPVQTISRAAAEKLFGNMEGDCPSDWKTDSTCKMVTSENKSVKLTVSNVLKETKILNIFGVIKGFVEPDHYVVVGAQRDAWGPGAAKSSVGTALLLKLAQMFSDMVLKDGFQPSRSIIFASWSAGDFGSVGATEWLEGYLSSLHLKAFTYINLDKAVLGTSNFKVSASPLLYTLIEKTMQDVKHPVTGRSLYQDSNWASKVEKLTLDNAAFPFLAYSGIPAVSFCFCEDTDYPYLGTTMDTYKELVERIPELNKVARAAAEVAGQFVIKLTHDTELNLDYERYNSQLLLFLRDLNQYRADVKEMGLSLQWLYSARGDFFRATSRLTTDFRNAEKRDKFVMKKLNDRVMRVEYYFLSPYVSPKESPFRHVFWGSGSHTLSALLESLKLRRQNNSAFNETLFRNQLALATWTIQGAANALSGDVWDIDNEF
# Experiments:
# human BACE1 ECD [1] = molecular target: T2, human BACE1 ECD; assay: Octet, pH 5.0;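 also: antibodies captured on anti-human capture sensor tips, dissociation monitored in PBS with BSA buffer, kinetics fitted with a one-to-one binding model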
# T2 construct: analyte of the Octet assay (200 nM) and enzyme of the first short substrate assay; also called human BACE1 extracellular domain
# T2 sequence (single chain, as listed by the source limits assumed): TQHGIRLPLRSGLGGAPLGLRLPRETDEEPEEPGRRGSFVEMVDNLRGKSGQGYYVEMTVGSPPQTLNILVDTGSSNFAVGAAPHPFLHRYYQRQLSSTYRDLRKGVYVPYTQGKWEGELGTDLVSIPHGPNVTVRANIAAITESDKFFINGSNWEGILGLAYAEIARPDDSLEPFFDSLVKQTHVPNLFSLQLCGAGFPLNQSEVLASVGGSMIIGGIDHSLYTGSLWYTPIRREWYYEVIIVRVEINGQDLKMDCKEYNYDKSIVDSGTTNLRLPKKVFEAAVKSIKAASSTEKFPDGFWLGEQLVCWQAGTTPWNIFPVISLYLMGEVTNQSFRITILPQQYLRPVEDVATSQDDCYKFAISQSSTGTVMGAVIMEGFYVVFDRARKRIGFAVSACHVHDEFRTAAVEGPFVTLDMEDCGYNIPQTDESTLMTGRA
# murine BACE1 ECD [2] = molecular target: T3, murine BACE1 ECD; assay: Octet, pH 5.0;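 also: antibodies captured on anti-human capture sensor tips, dissociation monitored in PBS with BSA buffer, kinetics fitted with a one-to-one binding model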
# T3 construct: analyte of the Octet assay (200 nM) and enzyme of the first short substrate assay
# T3 sequence (single chain, as listed by the source limits assumed): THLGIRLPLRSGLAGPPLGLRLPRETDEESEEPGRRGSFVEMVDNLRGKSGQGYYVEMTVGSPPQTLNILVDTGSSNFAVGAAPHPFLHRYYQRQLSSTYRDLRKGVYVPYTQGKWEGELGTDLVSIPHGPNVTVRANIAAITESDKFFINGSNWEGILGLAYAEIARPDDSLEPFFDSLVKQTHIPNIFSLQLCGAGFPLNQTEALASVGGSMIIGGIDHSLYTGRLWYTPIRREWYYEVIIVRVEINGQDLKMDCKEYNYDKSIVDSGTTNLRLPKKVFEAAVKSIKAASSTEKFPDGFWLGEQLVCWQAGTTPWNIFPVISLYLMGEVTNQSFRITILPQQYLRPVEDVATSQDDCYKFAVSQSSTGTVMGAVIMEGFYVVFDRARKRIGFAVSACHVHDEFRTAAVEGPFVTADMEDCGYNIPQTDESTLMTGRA
# human BACE1 ECD [3] = molecular target: T2, human BACE1 ECD; assay: Octet, pH 7.5;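 also: antibodies captured on anti-human capture biosensor tips, dissociation followed in PBS with BSA buffer, kinetics fitted with a one-to-one binding model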
# murine BACE1 ECD [4] = molecular target: T3, murine BACE1 ECD; assay: Octet, pH 7.5;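 also: antibodies captured on anti-human capture biosensor tips, dissociation followed in PBS with BSA buffer, kinetics fitted with a one-to-one binding model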
# [5] = molecular target: T4, BACE1 in primary mouse cortical neurons (mouse, UniProt P56818 46-501); assay: cell-based or functional assay
# T4 sequence (P56818 46-501): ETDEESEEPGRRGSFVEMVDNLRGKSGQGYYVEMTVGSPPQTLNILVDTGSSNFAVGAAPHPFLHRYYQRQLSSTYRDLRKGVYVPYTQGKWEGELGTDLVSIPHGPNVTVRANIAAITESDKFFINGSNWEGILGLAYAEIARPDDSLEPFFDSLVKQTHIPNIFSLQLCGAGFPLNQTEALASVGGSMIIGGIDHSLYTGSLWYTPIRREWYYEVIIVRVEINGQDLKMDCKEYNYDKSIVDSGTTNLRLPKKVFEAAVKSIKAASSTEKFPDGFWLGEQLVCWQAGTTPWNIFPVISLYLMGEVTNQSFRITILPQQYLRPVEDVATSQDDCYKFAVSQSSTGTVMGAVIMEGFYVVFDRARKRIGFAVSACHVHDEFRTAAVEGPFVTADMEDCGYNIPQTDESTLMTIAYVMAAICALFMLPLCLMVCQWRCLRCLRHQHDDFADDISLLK
# [6] = molecular target: T5, human TfR extracellular domain with N-terminal His tag (human, UniProt P02786 89-760); assay: ELISA, IgG;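 also: ELISA of IgG-containing supernatants tested in 1:5 serial dilutions for 1 h, bound antibody read out with HRP anti-kappa antibody and TMB substrate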
# T5 construct: Biotinylated in some assays; also called huTfR; HuTfR
# T5 sequence (P02786 89-760 G142S): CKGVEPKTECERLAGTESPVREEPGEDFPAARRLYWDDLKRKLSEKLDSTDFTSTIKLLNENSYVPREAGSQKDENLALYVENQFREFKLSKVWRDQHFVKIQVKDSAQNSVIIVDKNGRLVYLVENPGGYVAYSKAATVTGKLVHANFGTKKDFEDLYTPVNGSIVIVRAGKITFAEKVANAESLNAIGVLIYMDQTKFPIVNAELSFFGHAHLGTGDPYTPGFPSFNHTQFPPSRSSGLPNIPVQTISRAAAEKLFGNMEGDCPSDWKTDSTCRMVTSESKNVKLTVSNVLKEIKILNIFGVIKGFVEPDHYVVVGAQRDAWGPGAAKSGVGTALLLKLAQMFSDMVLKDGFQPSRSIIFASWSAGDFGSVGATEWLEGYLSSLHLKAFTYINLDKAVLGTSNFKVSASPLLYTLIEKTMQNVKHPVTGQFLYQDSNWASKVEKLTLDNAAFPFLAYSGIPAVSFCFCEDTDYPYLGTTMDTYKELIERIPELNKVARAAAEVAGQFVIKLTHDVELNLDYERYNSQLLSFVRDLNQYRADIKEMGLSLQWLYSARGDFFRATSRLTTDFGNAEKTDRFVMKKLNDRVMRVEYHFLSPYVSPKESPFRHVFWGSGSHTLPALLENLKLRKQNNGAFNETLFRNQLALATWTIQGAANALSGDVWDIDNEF
# [7] = molecular target: T1, cyno TfR extracellular domain …; assay: ELISA, IgG;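 also: ELISA of IgG-containing supernatants tested in 1:5 serial dilutions for 1 h, bound antibody read out with HRP anti-kappa antibody and TMB substrate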
# human BACE1 ECD [8] = molecular target: T2, human BACE1 ECD; assay: Octet, pH 7.5; remark: listed apart in the source
# murine BACE1 ECD [9] = molecular target: T3, murine BACE1 ECD; assay: Octet, pH 7.5; remark: listed apart in the source
# [10] = molecular target: T6, human BACE1 (R&D Systems) (human, UniProt P56817); assay: SPR (Biacore)
# T6 construct: recombinant, commercial (R&D Systems)
# T6 sequence (P56817 22-457 limits assumed): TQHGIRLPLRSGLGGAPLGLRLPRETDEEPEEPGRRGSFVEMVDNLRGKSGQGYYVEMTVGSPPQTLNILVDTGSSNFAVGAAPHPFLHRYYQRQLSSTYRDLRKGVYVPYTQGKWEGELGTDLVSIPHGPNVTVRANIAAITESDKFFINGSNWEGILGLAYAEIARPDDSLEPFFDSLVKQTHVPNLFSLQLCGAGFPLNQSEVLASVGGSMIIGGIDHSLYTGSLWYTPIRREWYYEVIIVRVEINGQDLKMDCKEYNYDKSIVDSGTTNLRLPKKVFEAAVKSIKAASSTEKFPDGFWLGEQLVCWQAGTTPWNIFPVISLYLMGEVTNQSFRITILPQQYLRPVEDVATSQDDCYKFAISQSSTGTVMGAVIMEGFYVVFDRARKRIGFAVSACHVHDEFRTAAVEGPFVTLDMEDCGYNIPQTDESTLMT
# human BACE1 ECD [11] = molecular target: T2, human BACE1 ECD; assay: cell-based or functional assay
# murine BACE1 ECD [12] = molecular target: T3, murine BACE1 ECD; assay: cell-based or functional assay
# [13] = molecular target: BACE1 (HTRF long substrate and FRET short substrate assays of Example 9D); assay: cell-based or functional assay
# [14] = molecular target: T4, BACE1 in primary mouse cortical neurons; assay: cell-based or functional assay; remark: listed apart in the source
binder,measurement,setting,value
"5931 (antibody, V domains shown, anti-BACE1 IgG) VH: QLQLQESGPGLVKPSETLSLTCTVSGGSISWSSYYWSWIRQPPGKGLEWIGSIYRSGRTYYNPSLKGRVTISVDTSKNQFSLKLSSVTAADTAVYYCARVGHGINYFDLWGRGTLVTVSS VL: EIVLTQSPATLSLSPGERATLSCRASQSVSSYLAWYQQKPGQAPRLLIYDASKRATGIPARFSGSGSGTDFTLTISSLEPEDFAVYYCQQVYTWPPRTFGGGTKVEIK",Kd,human BACE1 ECD [1],< 0.22 nM
same,Kd,murine BACE1 ECD [2],< 0.28 nM
same,Kd,human BACE1 ECD [3],< 0.22 nM
same,Kd,murine BACE1 ECD [4],< 0.23 nM
same,"IC50, Abeta x-40 in mouse cortical neurons",[5],0.91 nM
same,maximal % inhibition of Abeta x-40,[5],69%
"5932 (antibody, V domains shown, anti-BACE1 IgG) VH: QLQLQESGPGLVKPSETLSLTCTVSGGSISRGSYYWGWIRQPPGKGLEWIGMIYYSGSTWYNPSLKSRVTISVDTSKNQFSLKLSSVTAADTAVYYCARVGHGISYFDLWGRGTLVTVSS VL: EIVLTQSPATLSLSPGERATLSCRASQSVSSYLAWYQQKPGQAPRLLIYDASKRATGIPARFSGSGSGTDFTLTISSLEPEDFAVYYCQQVYTWPPRTFGGGTKVEIK",Kd,human BACE1 ECD [1],< 0.23 nM
same,Kd,murine BACE1 ECD [2],< 0.3 nM
same,Kd,human BACE1 ECD [3],0.31 nM
same,Kd,murine BACE1 ECD [4],< 0.3 nM
same,"IC50, Abeta x-40 in mouse cortical neurons",[5],6.26 nM
same,maximal % inhibition of Abeta x-40,[5],57%
"5933 (antibody, V domains shown, anti-BACE1 IgG) VH: QLQLQESGPGLVKPSETLSLTCTVSGGSISRGSYYWGWIRQPPGKGLEWIGMIYYSGSTWYNPSLKSRVTISVDTSKNQFSLKLSSVTAADTAVYYCARVGHGVSYFDLWGRGTLVTVSS VL: EIVLTQSPATLSLSPGERATLSCRASQSVSSYLAWYQQKPGQAPRLLIYGASKRATGIPARFSGSGSGTDFTLTISSLEPEDFAVYYCQQVYTWPPRTFGGGTKVEIK",Kd,human BACE1 ECD [1],< 0.2 nM
same,Kd,murine BACE1 ECD [2],< 0.24 nM
same,Kd,human BACE1 ECD [3],0.32 nM
same,Kd,murine BACE1 ECD [4],< 0.24 nM
same,"IC50, Abeta x-40 in mouse cortical neurons",[5],3.6 nM
same,maximal % inhibition of Abeta x-40,[5],67%
"N92A (antibody, V domains shown, also called 7A4.v15 N92A (CDR-L3) IgG) VH: EVQLVQSGAEVKKPGASVKVSCKGSGYTFTDYAMHWVRQAPGQGLEWMGGISTYFGRTNYNQKFKGRVTMTVDTSISTAYMELSRLRSDDTAVYYCARGLSGNYVMDYWGQGTTVTVSS VL: DIVMTQSPDSLAVSLGERATINCRASESVDSYGNSFMHWYQQKPGQPPKLLIYRASNLESGVPDRFSGSGSRTDFTLTISSLQAEDVAVYYCQQSAEAPPTFGQGTKLEIK",EC50,[6],0.0087 µg/mL
same,EC50,[7],0.0137 µg/mL
"Y102A (antibody, V domains shown, also called 7A4.v15 Y102A (CDR-H3) IgG; copies: 2 + 2) VH: EVQLVQSGAEVKKPGASVKVSCKGSGYTFTDYAMHWVRQAPGQGLEWMGGISTYFGRTNYNQKFKGRVTMTVDTSISTAYMELSRLRSDDTAVYYCARGLSGNYVMDAWGQGTTVTVSS VL: DIVMTQSPDSLAVSLGERATINCRASESVDSYGNSFMHWYQQKPGQPPKLLIYRASNLESGVPDRFSGSGSRTDFTLTISSLQAEDVAVYYCQQSNEAPPTFGQGTKLEIK",EC50,[6],0.0126 µg/mL
same,EC50,[7],0.0178 µg/mL
"S91A (antibody, V domains shown, also called 7A4.v15 S91A (CDR-L3) IgG) VH: EVQLVQSGAEVKKPGASVKVSCKGSGYTFTDYAMHWVRQAPGQGLEWMGGISTYFGRTNYNQKFKGRVTMTVDTSISTAYMELSRLRSDDTAVYYCARGLSGNYVMDYWGQGTTVTVSS VL: DIVMTQSPDSLAVSLGERATINCRASESVDSYGNSFMHWYQQKPGQPPKLLIYRASNLESGVPDRFSGSGSRTDFTLTISSLQAEDVAVYYCQQANEAPPTFGQGTKLEIK",EC50,[6],0.0113 µg/mL
same,EC50,[7],0.0163 µg/mL
"Q89A (antibody, V domains shown, also called 7A4.v15 Q89A (CDR-L3) IgG) VH: EVQLVQSGAEVKKPGASVKVSCKGSGYTFTDYAMHWVRQAPGQGLEWMGGISTYFGRTNYNQKFKGRVTMTVDTSISTAYMELSRLRSDDTAVYYCARGLSGNYVMDYWGQGTTVTVSS VL: DIVMTQSPDSLAVSLGERATINCRASESVDSYGNSFMHWYQQKPGQPPKLLIYRASNLESGVPDRFSGSGSRTDFTLTISSLQAEDVAVYYCAQSNEAPPTFGQGTKLEIK",EC50,[6],0.0109 µg/mL
same,EC50,[7],0.0138 µg/mL
"P96A (antibody, V domains shown, also called 7A4.v15 P96A (CDR-L3) IgG) VH: EVQLVQSGAEVKKPGASVKVSCKGSGYTFTDYAMHWVRQAPGQGLEWMGGISTYFGRTNYNQKFKGRVTMTVDTSISTAYMELSRLRSDDTAVYYCARGLSGNYVMDYWGQGTTVTVSS VL: DIVMTQSPDSLAVSLGERATINCRASESVDSYGNSFMHWYQQKPGQPPKLLIYRASNLESGVPDRFSGSGSRTDFTLTISSLQAEDVAVYYCQQSNEAPATFGQGTKLEIK",EC50,[6],0.01 µg/mL
same,EC50,[7],0.0162 µg/mL
"T97A (antibody, V domains shown, also called 7A4.v15 T97A (CDR-L3) IgG) VH: EVQLVQSGAEVKKPGASVKVSCKGSGYTFTDYAMHWVRQAPGQGLEWMGGISTYFGRTNYNQKFKGRVTMTVDTSISTAYMELSRLRSDDTAVYYCARGLSGNYVMDYWGQGTTVTVSS VL: DIVMTQSPDSLAVSLGERATINCRASESVDSYGNSFMHWYQQKPGQPPKLLIYRASNLESGVPDRFSGSGSRTDFTLTISSLQAEDVAVYYCQQSNEAPPAFGQGTKLEIK",EC50,[6],0.012 µg/mL
same,EC50,[7],0.0226 µg/mL
"P95A (antibody, V domains shown, also called 7A4.v15 P95A (CDR-L3) IgG) VH: EVQLVQSGAEVKKPGASVKVSCKGSGYTFTDYAMHWVRQAPGQGLEWMGGISTYFGRTNYNQKFKGRVTMTVDTSISTAYMELSRLRSDDTAVYYCARGLSGNYVMDYWGQGTTVTVSS VL: DIVMTQSPDSLAVSLGERATINCRASESVDSYGNSFMHWYQQKPGQPPKLLIYRASNLESGVPDRFSGSGSRTDFTLTISSLQAEDVAVYYCQQSNEAAPTFGQGTKLEIK",EC50,[6],0.0097 µg/mL
same,EC50,[7],0.0159 µg/mL
"Y100A (antibody, V domains shown, also called 7A4.v15 Y100A (CDR-H3) IgG; copies: 2 + 2) VH: EVQLVQSGAEVKKPGASVKVSCKGSGYTFTDYAMHWVRQAPGQGLEWMGGISTYFGRTNYNQKFKGRVTMTVDTSISTAYMELSRLRSDDTAVYYCARGLSGNAVMDYWGQGTTVTVSS VL: DIVMTQSPDSLAVSLGERATINCRASESVDSYGNSFMHWYQQKPGQPPKLLIYRASNLESGVPDRFSGSGSRTDFTLTISSLQAEDVAVYYCQQSNEAPPTFGQGTKLEIK",EC50,[6],0.0159 µg/mL
same,EC50,[7],0.024 µg/mL
"5532 (antibody, V domains shown, anti-BACE1 IgG) VH: not shown VL: EIVLTQSPATLSLSPGERATLSCRASQSVSSYLAWYQQKPGQAPRLLIYDASNRATGIPARFSGSGSGTDFTLTISSLEPEDFAVYYCQQSSNFPFTFGGGTKVEIK",Kd,human BACE1 ECD [8],76 nM
same,Kd,murine BACE1 ECD [9],48 nM
same,Kd,[10],130 nM
same,"% inhibition of BACE1 activity, short FRET substrate",human BACE1 ECD [11],56%
same,"% inhibition of BACE1 activity, short FRET substrate",murine BACE1 ECD [12],50%
same,"EC50, FRET short substrate",[13],52.3 nM
same,"EC50, HTRF long substrate",[13],104 nM
"5583 (antibody, V domains shown, anti-BACE1 IgG) VH: not shown VL: EIVLTQSPATLSLSPGERATLSCRASQSVSSYLAWYQQKPGQAPRLLIYDASNRATGIPARFSGSGSGTDFTLTISSLEPEDFAVYYCVQRSNFPWTFGGGTKVEIK",Kd,human BACE1 ECD [8],78 nM
same,Kd,murine BACE1 ECD [9],51 nM
same,Kd,[10],81.8 nM
same,"% inhibition of BACE1 activity, short FRET substrate",human BACE1 ECD [11],44%
same,"% inhibition of BACE1 activity, short FRET substrate",murine BACE1 ECD [12],34%
same,"EC50, FRET short substrate",[13],9.72 nM
same,"EC50, HTRF long substrate",[13],172 nM
"5592 (antibody, V domains shown, anti-BACE1 IgG) VH: not shown VL: EIVLTQSPATLSLSPGERATLSCRASQSVSSYLAWYQQKPGQAPRLLIYDASNRATGIPARFSGSGSGTDFTLTISSLEPEDFAVYYCQQSVNFPFTFGGGTKVEIK",Kd,human BACE1 ECD [8],59 nM
same,Kd,murine BACE1 ECD [9],38 nM
same,Kd,[10],105 nM
same,"% inhibition of BACE1 activity, short FRET substrate",human BACE1 ECD [11],63%
same,"% inhibition of BACE1 activity, short FRET substrate",murine BACE1 ECD [12],60%
same,"EC50, FRET short substrate",[13],95.9 nM
same,"EC50, HTRF long substrate",[13],189 nM
"5539 (antibody, V domains shown, anti-BACE1 IgG) VH: not shown VL: DIQMTQSPSSLSASVGDRVTITCRASQSISSYLNWYQQKPGKAPKLLIYAASSLQSGVPSRFSGSGSGTDFTLTISSLQPEDFATYYCQQPLSHPRTFGGGTKVEIK",Kd,human BACE1 ECD [8],79 nM
same,Kd,murine BACE1 ECD [9],110 nM
same,Kd,[10],30.5 nM
same,"% inhibition of BACE1 activity, short FRET substrate",human BACE1 ECD [11],42%
same,"% inhibition of BACE1 activity, short FRET substrate",murine BACE1 ECD [12],23%
same,"EC50, HTRF long substrate",[13],0.694 nM
same,"IC50, Abeta x-40 in mouse cortical neurons",[14],17.6 nM
same,maximal % inhibition of Abeta x-40,[14],45%
